In PMC7076459, “Biochemical and Molecular Characterization of PvNTD2, a Nucleotidase Highly Expressed in Nodules from Phaseolus vulgaris” (Plants, 2020):

How the values were obtained:
PvNTD2 = biological target: T1, PvNTD2 (Phaseolus vulgaris, UniProt V7AIP8); assay: phosphate release, inhibition of phosphatase activity; assay type: biochemical; details: 2 mM UMP substrate (other nucleotides also tested), pH 7, 1 mM MgCl2, 37 °C; reaction product
T1 construct: gene PHAVU_011G182400g; ORF without predicted signal peptide (cleavage predicted between 24 and 25)
T1 sequence (V7AIP8 25-269): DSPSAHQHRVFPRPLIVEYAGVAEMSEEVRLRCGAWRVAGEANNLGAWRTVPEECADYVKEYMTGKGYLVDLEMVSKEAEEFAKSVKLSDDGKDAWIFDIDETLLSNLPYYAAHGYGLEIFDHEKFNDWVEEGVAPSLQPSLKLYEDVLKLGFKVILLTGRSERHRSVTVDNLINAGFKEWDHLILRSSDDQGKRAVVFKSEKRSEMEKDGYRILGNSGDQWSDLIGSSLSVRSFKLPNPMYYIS

[1] = substrate: Nc1ncnc2c1ncn2[C@@H]1O[C@H](COP(=O)(O)O)[C@@H](O)[C@H]1O; assay: phosphate release, Hanes-Woolf plot; assay type: biochemical, Phaseolus vulgaris; details: 50 mM TES-NaOH pH 7, 1 mM MgCl2, 37 °C
Excerpt: (§1) phosphate release, Hanes-Woolf plot on PvNTD2

[2] = substrate: Cc1cn([C@H]2C[C@H](O)[C@@H](COP(=O)(O)O)O2)c(=O)[nH]c1=O; assay: phosphate release, Hanes-Woolf plot; assay type: biochemical, Phaseolus vulgaris; details: 50 mM TES-NaOH pH 7, 1 mM MgCl2, 37 °C
Excerpt: as §1

[3] = substrate: O=c1[nH]c(=O)c2ncn([C@@H]3O[C@H](COP(=O)(O)O)[C@@H](O)[C@H]3O)c2[nH]1; assay: phosphate release, Hanes-Woolf plot; assay type: biochemical, Phaseolus vulgaris; details: 50 mM TES-NaOH pH 7, 1 mM MgCl2, 37 °C
Excerpt: as §1

[4] = substrate: O=c1ccn([C@@H]2O[C@H](COP(=O)(O)O)[C@@H](O)[C@H]2O)c(=O)[nH]1; assay: phosphate release, Hanes-Woolf plot; assay type: biochemical, Phaseolus vulgaris; details: 50 mM TES-NaOH pH 7, 1 mM MgCl2, 37 °C
Excerpt: as §1

In the case of Nc1ncnc2c1ncn2[C@@H]1O[C@H](CO)[C@@H](O)[C@H]1O [adenosine], the “% activity at 0.2 mM” value (PvNTD2) is reported as “The activity of the recombinant protein was strongly inhibited in the presence of adenosine”.

B1: PvNTD2 (Phaseolus vulgaris) (protein)
chain: DSPSAHQHRVFPRPLIVEYAGVAEMSEEVRLRCGAWRVAGEANNLGAWRTVPEECADYVKEYMTGKGYLVDLEMVSKEAEEFAKSVKLSDDGKDAWIFDIDETLLSNLPYYAAHGYGLEIFDHEKFNDWVEEGVAPSLQPSLKLYEDVLKLGFKVILLTGRSERHRSVTVDNLINAGFKEWDHLILRSSDDQGKRAVVFKSEKRSEMEKDGYRILGNSGDQWSDLIGSSLSVRSFKLPNPMYYIS
notes: ORF without predicted signal peptide (cleavage predicted between 24 and 25)
For B1, the Km [1] was 11 µM, the Vmax [1] was 1.46 µmol/min/mg and the Km [2] was 63 µM. For the same molecule, the Vmax [2] was 4.08 µmol/min/mg, the Km [3] was 95 µM and the Vmax [3] was 4.22 µmol/min/mg. For the same molecule, the Km [4] was 39 µM and the Vmax [4] was 4 µmol/min/mg.
